# B1: CM04P (anti-PEG _ anti-EpCAM) (bispecific antibody)
# chain: QIQLVQSGPELKKPGETVKISCKASGYTFKNYGMNWVKQAPGKGLKWMGWINTYTGQPIYANDFKGRFAFSLETSASTAYLQINNLKNEDTATYFCARDWGPYWGQGTLVIVSASPNSASHSGSAPQTSSAPGSQNIMMTQSPSSLAVSAGEKVTVNCKSSQSVLYSSNQMNYLAWYQQKPGQSPKLLIYWASTRESGVPDRFTGSGSGTDFTLTISSVQTEDLAVYYCLQYLSSWTFGGGTKLEIKGGSSRSSSSGGGGSGGGGQVKLQQSGPELKKPGETVKISCKASGYTFTNYGMNWVKQAPGKGLKWMGWINTYTGESTYADDFKGRFAFSLETSASAAYLQINNLKNEDTATYFCARFAIKGDYWGQGTTVTVSSSPNSASHSGSAPQTSSAPGSQDIVLTQSPFSNPVTLGTSASISCRSTKSLLHSNGITYLYWYLQKPGQSPQLLIYQMSNLASGVPDRFSSSGSGTDFTLRISRVEAEDVGVYYCAQNLEIPRTFGGGTKLEIKGGGGSHHHHHHHH
# notes: Intended as a negative control; also called αPEG/αEPCAM
# Biological target: CD3 on T cells (Jurkat T cells; primary human T cells) (human, UniProt P07766 23-207; P04234 22-171; P09693 23-182)
# Sequence (P07766 23-207 limits assumed, chain 1 of 3): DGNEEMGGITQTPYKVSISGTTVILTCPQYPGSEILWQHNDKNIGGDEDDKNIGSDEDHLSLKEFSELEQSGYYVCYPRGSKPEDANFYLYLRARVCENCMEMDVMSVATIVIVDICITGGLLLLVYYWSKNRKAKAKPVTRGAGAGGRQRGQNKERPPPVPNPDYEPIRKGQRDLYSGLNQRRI
# Sequence (P04234 22-171 limits assumed, chain 2 of 3): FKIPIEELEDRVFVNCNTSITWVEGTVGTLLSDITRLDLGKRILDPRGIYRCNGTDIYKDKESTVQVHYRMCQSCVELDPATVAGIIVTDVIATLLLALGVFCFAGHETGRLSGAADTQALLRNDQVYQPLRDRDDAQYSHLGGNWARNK
# Sequence (P09693 23-182 limits assumed, chain 3 of 3): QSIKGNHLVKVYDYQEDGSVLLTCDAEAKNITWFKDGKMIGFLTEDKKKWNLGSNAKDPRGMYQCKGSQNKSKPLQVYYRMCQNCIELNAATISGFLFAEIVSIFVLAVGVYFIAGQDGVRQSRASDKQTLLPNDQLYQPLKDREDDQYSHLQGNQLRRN
# Experiment: flow cytometry on Jurkat T cells, APC-conjugated anti-His tag secondary antibody
# Description: Each multi-specific reagent was then screened for binding to Jurkat T cells. Jurkat T cells were plated into individual wells of a 96-well plate (˜100,000 cells per well in 200 ul ImmunoCult™-XF T Cell Expansion Medium (StemCell Technologies)). […] As a control, CHO cell culture medium alone was added. Following incubation for two hours, cells were washed and stained in 50 μl FACS buffer (PBS (Gibco)/2% FBS (LabTech)) containing a 1/100 dilution of an APC-conjugated anti-His tag secondary antibody (BioLegend). Cells were washed again and resuspended in 100 μl FACS buffer plus 0.1 μg/ml DAPI live/dead staining dye (Roche). Cell samples were run on a MACSQuant® Analyzer 10 Flow Cytometer and analyzed using the FlowJo (v10) software.
binder,measurement,value
B1,binding result,no binding (tested: 20 µl of CHO culture supernatant)

# — patent US20250353931A1 (CHIMERIS UK, published 2025)
